Assay [1] concerns the target N-terminal phenylalanine peptide (alanine at the penultimate position). As to the kind of experiment: Fluorescence polarization binding affinity of tandem recognizers, FA peptide. The method, then: The multivalent binder PS651 was designed as a tandem fusion molecule expressed from a single coding sequence containing segments encoding three copies of atClpS2-V1 (Tris-atClpS2-V1) joined end-to-end by segments encoding a flexible peptide linker (Linker 2). Fluorescence polarization studies were performed with PS651, the Bis-atClpS2-V1 binders (PS609, PS610, PS611), and the monomeric binder atClpS2-V1, to determine the binding affinity of each for a peptide having an N-terminal phenylalanine residue with an alanine residue at the penultimate position. The KD values obtained from these studies are reported below in Table 9.
In general terms: Polarisation of emitted light reports the rotation of a fluorescent probe.

For assay [2], the system named is labeled N-terminal LA peptide. As to the kind of experiment: Stopped-flow dissociation rate (koff), PS557 derivatives. The format is binding. Particulars: excess unlabeled trap peptide. The source says: To measure the dissociation rate (koff) by stopped-flow, complexes of binder bound to labeled peptide substrate at an optimal concentration were rapidly mixed with excess unlabeled trap peptide. […] The averaged raw traces were fitted with an exponential equation to determine the koff (FIG. 37B, bottom panel).

The subject of assay [3] is FITC labeled N-terminal LA peptide. In words: Stopped-flow association rate constant (kon), PS557 derivatives. Type of assay: binding. The method, then:
Stopped-flow assays were performed to measure the association (kon) and dissociation (koff) rates for PS557, atClpS2-V1, and fusion proteins derived by C-terminal addition of protein shields. To measure the on-rate constant by stopped-flow, the binder was rapidly mixed with FITC labeled peptide, and the reaction was followed in real time. N-terminal LA peptide was used for PS557 derivatives and N-terminal FA peptide was used for atClpS2-V1 derivatives. In this assay, the fluorescence signal decreased due to quenching upon protein binding. The averaged traces obtained at multiple concentrations of binder were fitted with a decay equation to derive association rates (FIG. 37A, middle panel). A linear slope from the plot of association rates against different binder concentrations gave the kon rate constant (FIG. 37A, bottom panel).

Assay [4] deals with N-terminal arginine peptide (alanine at the penultimate position). As to the kind of experiment: Fluorescence polarization binding affinity of tandem recognizers, RA peptide. The protocol:
Three different constructs were designed and expressed for each multivalent UBR-box binder: PS690, PS691, and PS692 (Bis-PS621 binders having Linker 1, Linker 2, and Linker 3, respectively); and PS693, PS694, and PS695 (Bis-PS528 binders having Linker 1, Linker 2, and Linker 3, respectively). Fluorescence polarization studies were performed to evaluate the binding affinity of each of the multivalent UBR-box binders, and the corresponding monomeric binders, for a peptide having an N-terminal arginine residue with an alanine residue at the penultimate position. The KD values obtained from these studies are reported below in Table 11.

The next assay relates to dye-labeled RL peptide. As to the kind of experiment: Peptide-on-chip recognition assay for N-terminal arginine peptide. Type of assay: binding. The method, then:
Peptide-on-chip recognition assays for N-terminal arginine peptide were performed with PS621 and PS528. Both PS528 and PS621 recognized N-terminal R, and binding to dye-labeled RL peptide at the single-molecule level was confirmed in these recognition assays, with average pulse width of approximately 60 ms.

The subject of the next assay is RA and KA peptides. In words: Fluorescence polarization binding titration of UBR-box domain candidates (KD). Particulars: RA peptide. The protocol:
The binding affinity of selected UBR-box domain candidates was then evaluated by measuring KD (dissociation constant) values for N-terminal R and K peptides. Assays were performed for RA and KA peptides at increasing concentration of UBR protein (FIG. 32G, top plots). KD values were determined from the binding titration curves.

For assay [5], the system named is amino acid at a terminal position of a polypeptide. The note with it: Table 2; amino acid identity at a terminal position (phosphotyrosine also internal); inferred from literature and/or demonstrated by the inventors; cited from earlier work.
In assay [6] the test system is immobilized peptides containing N-terminal R, K or H. In words: Biolayer interferometry of UBR-box domain homologs. Type of assay: binding. The protocol: The amino acid binding properties of UBR-box domain homologs were evaluated by biolayer interferometry. Peptides containing an N-terminal arginine (R), followed by different amino acids in the penultimate position, were immobilized on a biolayer interferometry sensor surface, allowed to bind to UBR-box protein, and incubated in buffer to allow the UBR-box molecules to dissociate. […] FIG. 32C is a heatmap showing results measured for 24 UBR-box homologs against 14 polypeptides containing N-terminal R followed by different amino acids in the penultimate position.
UBR proteins bind to the basic N-terminal residues R, K, and H as part of the conserved N-end rule pathway. To identify high-affinity UBR proteins with properties favorable for use in sequencing, a diverse panel of uncharacterized UBR-box domain homologs from 44 species (PS501-PS544) was designed. UBR-box domain homologs were expressed, purified, and evaluated for binding to N-terminal amino acids by biolayer interferometry. Measurements were carried out at 30° C. for each protein for R, K and H binding. The amino-acid binding profile of each new homolog was first evaluated by biolayer interferometry using a single-point screening assay. All peptides in this screen contained a penultimate alanine (A) and consisted of the sequence XAKLDEESILKQK (SEQ ID NO: 238), where X is R, K, or H.
To evaluate the effect of penultimate amino acids on arginine binding, UBR box-domain homologs were evaluated for binding to 14 different peptides with N-terminal RX (peptide sequence: RXGGGDDDFFK (SEQ ID NO: 241)). The selected RX dipeptides are the 14 most frequently found in the human proteome.
(In general: BLI is a label-free optical method that tracks binding on a fibre tip over time.)

Assay [7] relates to labeled peptide (XAKLDEESILKQK-FITC (SEQ ID NO: 238)); RA, KA, HA. In words: Single point fluorescence polarization assay of UBR-streptavidin complex. Type of assay: binding. The method, then:
Single point fluorescence polarization assays were then performed for selected candidates. These assays measured the interaction of labeled peptide (XAKLDEESILKQK-FITC (SEQ ID NO: 238)) with UBR-streptavidin complex in a format in which these molecules are free in solution. Measurements of polarization response (millipolarization, mP) and total intensity for RA, KA, and HA peptides were performed.

In assay [8] the test system is amino acid at a terminal position of a polypeptide. In words: Amino acid binding preference of recognition proteins (Tables 1 and 2). The note with it: Table 1, ClpS proteins; amino acid identity at a terminal position of a polypeptide; inferred from literature and/or demonstrated by the inventors. An excerpt:
It should be appreciated that these sequences and other examples described herein are meant to be non-limiting, and recognition molecules in accordance with the application can include any homologs, variants thereof, or fragments thereof minimally containing domains or subdomains responsible for peptide recognition.

Assay [9] has as its system peptides with different N-terminal amino acids, penultimate alanine. As to the kind of experiment: Biolayer interferometry of multivalent amino acid binders. The format is binding. The method, then:
The amino acid binding profile of each Bis-atClpS2-V1 binder (PS609, PS610, and PS611) was evaluated by biolayer interferometry as described above. The monovalent atClpS2-V1 was run as a control. Measurements with each binder were carried out for the amino acids F, Y, and W, along with I, L, M, and V as negative controls. All peptides contained a penultimate alanine (A). Response curves for the tandem binders PS609, PS610, and PS611 are shown in FIGS. 35B, 35C, and 35D, respectively.
The multivalent binder PS612 is a polypeptide that contains tandem copies of two different ClpS protein monomers (atClpS2-V1 and PS372). The amino acid binding profile of PS612 was evaluated by biolayer interferometry as described above. The monovalent binders atClpS2-V1 and PS372 were separately run as controls.
The multivalent binder PS614 is a polypeptide that contains two copies of the ClpS binder PS372 oriented in tandem. The amino acid binding profile of PS614 was evaluated by biolayer interferometry as described above.
The multivalent binders PS637, PS638, and PS639 are polypeptides that each contain two copies of the ClpS binder PS557 oriented in tandem and separated by Linker 1, Linker 2, and Linker 3, respectively. The amino acid binding profiles of each binder was evaluated by biolayer interferometry as described above.

Read-outs that look alike come from different tables or passages of the source.

Broadly, the Kd is a measure of binding affinity in units of concentration.

B1: PS609: single polypeptide with two tandem copies of atClpS2-V1 joined by Linker 1 (SEQ ID NO: 243) (protein)
chain: MSDSPVDLKPKPKVKPKLERPKLYKVMLLNDDYTPMSFVTVVLKAVFRMSEDTGRRVMMTAHRFGSAVVVVCERDIAETKAKEATDLGKEAGFPLMFTTEPEEGGGSGGGSGGGSGMSDSPVDLKPKPKVKPKLERPKLYKVMLLNDDYTPMSFVTVVLKAVFRMSEDTGRRVMMTAHRFGSAVVVVCERDIAETKAKEATDLGKEAGFPLMFTTEPEEGHHHHHHHHHHGGGSGGGSGGGSGLNDFFEAQKIEWHEGGGSGGGSGGGSGLNDFFEAQKIEWHE
On to B1, for which the affinity in [1], expressed as Kd, was 221 nM.

B2: PS698 (protein)
chain: MPTAASATESAIEDTPAPARPEVDGRTKPKRQPRYHVVLWNDDDHTYQYVVVMLQSLFGHPPERGYRLAKEVDTQGRVIVLTTTREHAELKRDQIHAFGYDRLLARSKGSMKASIEAEEHHHHHHHHHHGGGSGGGSGGGSGLNDFFEAQKIEWHEGGGSGGGSGGGSGLNDFFEAQKIEWHEGSAGSAAGSGEFMDKDCEMKRTTLDSPLGKLELSGCEQGLHEIKLLGKGTSAADAVEVPAPAAVLGGPEPLMQATAWLNAYFHQPEAIEEFPVPALHHPVFQQESFTRQVLWKLLKVVKFGEVISYQQLAALAGNPAATAAVKTALSGNPVPILIPCHRVVSSSGAVGGYEGGLAVKEWLLAHEGHRLGKPGLG
In [2], B2 had an LA koff of 0.19 s⁻¹. Besides, the LA kon in assay [3] was 4e+06 M⁻¹ s⁻¹.

B3: PS528: UBR-box domain homolog, SEQ ID NO: 156 (protein, listed as Kluyveromyces lactis)
chain: MHSKFNHAGRICGAKFRVGEPIYRCKECSFDDTCVLCVNCFNPKDHVGHHVYTSICTEFNNGICDCGDKEAWNHELNCKGAED
With B3, the Kd is 403 nM in assay [4]; 460 nM in the assay with RA and KA peptides. The average pulse width result in the assay with dye-labeled RL peptide is given as “approximately 60 ms”. For the same molecule, the “Binding Pref.” value in assay [5] was “K, R, H”. Besides, the “binding range for RX dipeptides” value in assay [6] (14 peptides RXGGGDDDFFK (SEQ ID NO: 241)) was “extensive binding range for RX dipeptides”. Moreover, the “binding affinity to N-terminal R with different penultimate amino acids” value in [6] (14 polypeptides containing N-terminal R) is “high binding affinity to R in the presence of a wide range of penultimate amino acids”. Besides, the “binding to RA/KA/HA peptides (single-point screening)” value in assay [6] (30° C., XAKLDEESILKQK) was “favorable binding trajectories to RA and KA peptides with notably high response for RA peptide”. Further, the “dissociation trajectory and HA peptide binding” value in assay [6] (30° C., XAKLDEESILKQK) is “slower dissociation trajectory and displayed binding to HA peptide”. In [7], the “polarization response with RA peptide” value is “bind to RA peptides with strong responses”.

B4: PS557: PS372-homologous ClpS protein, SEQ ID NO: 71 (protein, listed as Planctomycetes bacterium)
chain: MPTAASATESAIEDTPAPARPEVDGRTKPKRQPRYHVVLWNDDDHTYQYVVVMLQSLFGHPPERGYRLAKEVDTQGRVIVLTTTREHAELKRDQIHAFGYDRLLARSKGSMKASIEAEE
For B4, the “Binding Pref.” value in assay [8] is on record as “I, L, V”. Also, in assay [2], the LA koff came to 0.22 s⁻¹. Moreover, the LA kon in assay [3] came to 1.8e+06 M⁻¹ s⁻¹. Besides, in assay [9], the “N-terminal amino acids bound (biolayer interferometry)” value is “binds N-terminal I, L, and V”.

Values taken from patent US12065466B2, “Methods and compositions for protein sequencing” (Quantum-Si Incorporated, priority 2020, dated 2024).
